Measured values published in patent US20060045881A1, “Anti-cancer vaccines” (Board of Regents, The University of Texas System, priority 2004, published 2006).

Target: HLA-A2.1 (HLA-A*0201) on the surface of T2 cells (human)

B1: Influenza B nucleoprotein peptide (aa 85-94), P04665 85-94 (peptide)
peptide: KLGEFYNQMM
modifications: not checked
B1 showed a Median Channel of Fluorescence of HLA-A2 Expression on T2 (median channel of fluorescence) of 194.
